The values below come from patent publication US20240218055A1 (US Dept. of Health and Human Services, published 2024).

Like-named read-outs stand apart in the source and are kept apart here.

For assay [1], the target named is T1, LASV Josiah GPC on pseudotyped rVSV (Lassa virus (Josiah strain), UniProt P08669 1-491).
T1 sequence: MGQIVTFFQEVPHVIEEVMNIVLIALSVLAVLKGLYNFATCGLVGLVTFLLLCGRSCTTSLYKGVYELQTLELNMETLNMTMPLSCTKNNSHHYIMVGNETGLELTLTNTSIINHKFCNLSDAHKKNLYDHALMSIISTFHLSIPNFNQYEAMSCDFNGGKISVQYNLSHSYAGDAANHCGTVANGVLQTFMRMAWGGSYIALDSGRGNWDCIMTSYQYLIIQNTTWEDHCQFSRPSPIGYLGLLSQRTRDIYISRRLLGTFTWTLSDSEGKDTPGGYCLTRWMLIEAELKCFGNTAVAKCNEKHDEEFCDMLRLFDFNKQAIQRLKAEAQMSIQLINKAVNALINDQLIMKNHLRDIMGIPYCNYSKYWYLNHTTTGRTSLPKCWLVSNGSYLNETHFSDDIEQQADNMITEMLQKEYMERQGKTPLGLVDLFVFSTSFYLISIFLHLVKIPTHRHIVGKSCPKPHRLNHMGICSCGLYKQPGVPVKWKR
Nature of the assay: cell-based or functional assay.

For a further assay, the target named is bovine serum albumin (bovine, UniProt P02769 25-607). Briefly: ELISA, plate coated with BSA. (In general: ELISA stands for enzyme-linked immunosorbent assay.)
The target of assay [2] is T2, LASV GP1 subunit protein (Lassa virus, UniProt P08669 59-259).
T2 sequence: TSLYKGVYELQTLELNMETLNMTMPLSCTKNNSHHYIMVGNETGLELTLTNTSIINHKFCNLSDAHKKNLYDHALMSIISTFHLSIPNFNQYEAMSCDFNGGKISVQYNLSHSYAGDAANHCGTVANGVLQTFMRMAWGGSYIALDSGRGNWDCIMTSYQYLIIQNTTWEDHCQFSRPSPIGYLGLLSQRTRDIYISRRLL
Nature of the assay: BLI.

Assay [3] deals with T2, LASV GP1 subunit protein. Nature of the assay: BLI. This is another data set of the same source.
Assay [4] deals with LASV GP2 subunit protein (Lassa virus). Briefly: BLI.

bovine serum albumin, sequence (P02769 25-607 limits assumed): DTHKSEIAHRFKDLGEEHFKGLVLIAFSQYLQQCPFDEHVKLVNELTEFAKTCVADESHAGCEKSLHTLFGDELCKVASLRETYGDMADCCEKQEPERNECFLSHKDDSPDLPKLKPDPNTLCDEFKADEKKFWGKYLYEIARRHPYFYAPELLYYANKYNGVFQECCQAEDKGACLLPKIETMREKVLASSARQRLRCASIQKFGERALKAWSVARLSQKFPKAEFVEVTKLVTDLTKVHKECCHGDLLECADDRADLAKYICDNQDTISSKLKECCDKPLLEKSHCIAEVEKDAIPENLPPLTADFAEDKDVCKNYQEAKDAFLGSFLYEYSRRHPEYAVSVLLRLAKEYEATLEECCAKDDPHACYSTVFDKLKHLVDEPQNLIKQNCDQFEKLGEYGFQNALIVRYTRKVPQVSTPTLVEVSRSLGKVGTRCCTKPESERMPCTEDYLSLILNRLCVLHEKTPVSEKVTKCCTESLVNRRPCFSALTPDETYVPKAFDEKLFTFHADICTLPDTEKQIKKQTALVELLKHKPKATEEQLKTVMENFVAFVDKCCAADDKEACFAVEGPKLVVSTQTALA

B1: bivalent single domain antibody D5 in IgG2a format (Fc fusion)
chain 1: AWQLVESGGGSVQPGGSLTLTCQASKSTFSTSGMRWERQAQGKGVEFVADISSDSTRKWYSDSVKGRFTISRSNWWRTVTLQMNDLKPEDTARYYCKDLESHHLRGQGTQVTVSSAAAEPKIPQPQPKPQPQPQPQPKPQPKPEPECTCPKCP
chain 2: AWQLVESGGGSVQPGGSLTLTCQASKSTFSTSGMRWERQAQGKGVEFVADISSDSTRKWYSDSVKGRFTISRSNWWRTVTLQMNDLKPEDTARYYCKDLESHHLRGQGTQVTVSSAAAEPKIPQPQPKPQPQPQPQPKPQPKPEPECTCPKCP
On to B1, for which the “IC50, neutralization of Josiah pseudovirus” value in assay [1] is 12 µg/mL.

B2: shark VNAR B10 (VNAR)
VNAR: ARVDQTPQTITKETGESLTINCVLRDSNCPLSSTFWYRADAGSLNEENISKGGRYVETVNSGSKSFSLRINDLTTEDSGTYRCKVAGLPLDCIPARGLELNWREDVYGGGTAVTVN
The term Kd denotes a measure of binding affinity in units of concentration. A lower Kd goes with higher affinity. Broadly, the koff is the rate constant with which the complex falls apart. For orientation: kon means the rate constant with which the complex forms. A low value points to slow association. Take B2: the binding result with bovine serum albumin is reported as “no binding (tested: 1 ug/ml (single concentration))”. This molecule came in with an equilibrium dissociation constant (Kd) with LASV GP1 subunit protein [2] of 78.6 nM. Also, the “neutralization of LASV pseudotyped Josiah virus” value in assay [1] is under 50%. Further, in the assay with LASV GP1 subunit protein [3], the koff was 0.00414 s⁻¹ and the kon worked out at 52700 M⁻¹ s⁻¹.

B3: shark VNAR A1 (VNAR)
VNAR: ARVDQTPQTITKETGESLTINCVPPDSNCALADTYWYRKKSGSTNEESISKGGRYVPTVNSGSKSFILRINDLRVADSGTYRCKVSCYAAAYYGQQLERLYDVYGGGTAVTVN
Take B3: in the assay with bovine serum albumin, the binding result was “no binding (tested: 1 ug/ml (single concentration))”. The molecule also came in with a Kd in the assay with LASV GP1 subunit protein [2] of 18.6 nM. The “neutralization of LASV pseudotyped Josiah virus” value in assay [1] is under 50%.

B4: camel VHH D5 (VHH)
VHH: AWQLVESGGGSVQPGGSLTLTCQASKSTFSTSGMRWERQAQGKGVEFVADISSDSTRKWYSDSVKGRFTISRSNWWRTVTLQMNDLKPEDTARYYCKDLESHHLRGQGTQVTVSS
As for B4, in the assay with LASV GP1 subunit protein [2], the dissociation constant (Kd) is 20.8 nM. Also, in assay [1], the “neutralization of LASV pseudotyped Josiah virus” value was under 50%. In the assay with LASV GP1 subunit protein [3], the affinity, expressed as Kd, was 20.8 nM and the kon is 23400 M⁻¹ s⁻¹.

B5: shark VNAR C3 (VNAR)
VNAR: ARVDQTPQTITAETGESLTINCVLRNSDCGLSDTYWFRMSPGSGSEERISIGGRYLETVNSVSKSFSLRINDLTVEDSGRYRCKTDVYRYVSGSGCLYSYFASGAGTVVTVN
In assay [4], B5 returned a Kd of 10.6 nM, an off-rate constant (koff) of 0.000265 s⁻¹ and an on-rate constant (kon) of 25100 M⁻¹ s⁻¹. In addition, the binding result with bovine serum albumin is recorded as “no binding (tested: 1 ug/ml (single concentration))”. In addition, the binding result in the assay with LASV GP1 subunit protein [2] is given as “no binding”. For the same molecule, in assay [1], the “neutralization of LASV pseudotyped Josiah virus” value was under 50%.

B6: shark VNAR B8 (VNAR)
VNAR: ARVDQTPQTVTKETGESLTINCVLRDSNCALPSTYWYRKKSGSTNEENISKGGRYVETVNSGSKSFSLRINDLRPEDSGTYRCKVHGLPLDCIPARGLELNWREDVNGGGTAVTVN
In the case of B6, in the assay with bovine serum albumin, the binding result is on record as “no binding (tested: 1 ug/ml (single concentration))”. In the assay with LASV GP1 subunit protein [2], this molecule returned a dissociation constant Kd of 15.9 nM. The “neutralization of LASV pseudotyped Josiah virus” value in assay [1] is under 50%. Moreover, in the assay with LASV GP1 subunit protein [3], the koff was 0.00236 s⁻¹ and the kon turned out to be 149000 M⁻¹ s⁻¹.

B7: shark VNAR A10 (VNAR)
chain: ARVDQTPQTITKETGESLTITCILRDSQCALSPTYWYHKKSGSTKPERIYKGGRYVETVNSGSKSFSLRINDLTVEDSGTFFCKVSGWYAYSCRLEPDGYYDVYGGGTVVTVN
Turning to B7, in the assay with bovine serum albumin, the binding result is “no binding (tested: 1 ug/ml (single concentration))”. Further, the Kd with LASV GP1 subunit protein [2] worked out at 22.7 nM. Besides, in assay [1], the “neutralization of LASV pseudotyped Josiah virus” value is under 50%.
